Reference: US20230107034A1
Read-outs that look alike come from different tables or passages of the source.

Tests used:
Experiment in all cases: SPR
PFs (AB 1-42 proto) = PFs (AB 1-42 proto) (UniProt P05067)
monomer = monomer (UniProt P05067)
Ab 1-42 [1] = biological target: Ab 1-42 (UniProt P05067)
Ab 1-42 [2] = biological target: Ab 1-42 (UniProt P05067); remark: listed apart in the source

Ab 1-42, sequence (P05067 672-713): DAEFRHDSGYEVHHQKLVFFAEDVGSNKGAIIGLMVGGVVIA
PFs (AB 1-42 proto), sequence (P05067 672-713): as above
monomer, sequence (P05067 672-713): as above

Row | Substance | koff (PFs (AB 1-42 proto)) | koff (monomer) | koff (Ab 1-42 [1]) | koff (Ab 1-42 [2])
1 | Aducanumab | 0.000144 s⁻¹ | 0.718 s⁻¹ | – | –
2 | BAPI | – | – | 0.000505 s⁻¹ | 0.000426 s⁻¹
